From the DeepSol protein solubility set

Experiment: soluble on expression in E. coli; label from the status in PepcDB or PDB records

| Sequence | soluble on expression in E. coli |
| --- | --- |
| MNYLEGVGSKKGGGGIASESQFNLQRRKEVESLLSKGENVPYTFQDEKDDQVRSNPYIYKNHSGKLVCKLCNTMHMSWSSVERHLGGKKHGLNVLRRGISIEKSSLGREGQTTHDFRQQQKIIEAKQSLKNNGTIPVCKIATVKNPKNGSVGLAIQVNYSSEVKENSVDSDDKAKVPPLIRIVSGLELSDTKQKGKKFLVIAYEPFENIAIELPPNEILFSENNDMDNNNDGVDELNKKCTFWDAISKLYYVQFFFKQAEQEQADV | soluble |
| MNYQVLLYYKYTTIDDPEQFAQDHLAFCKAHHLKGRILVSTEGINGTLSGTKEETEQYMAHMHADERFKDMVFKIDEAEGHAFKKMHVRPRKEIVALDLEDDVDPRHTTGQYLSPVEFRKALEDDDTVIIDARNDYEFDLGHFRGAIRPDITRFRDLPDWIKENKALFTDKKVVTYCTGGIRCEKFSGWLLKEGFEDVAQLHGGIATYGKDPETKGQYWDGKMYVFDDRISVDINQVEKTIIGKDWFDGKPCERYINCANPECNKQILVSEENETKYLGACSYECAKHERNRYVQANNISDNEWQQRLTNFDDLHQHALEHHHHHH | soluble |
| MNYTTEFKLGTDGLDVVPGATNTFEMPEGVIPSANATVYFYSGGMPESATANYTGAGNLWSFTSTNGIDSSAGAIRVEITQGRNFGDDPGLVTATATTRAWNEPPLVTVDQSVSGETKFAFSIPVGKPGNDGISAYAQAHAQGFNGSVDDWLESLRGANGKSAYELAVTQGFQGSSADWLNSLKGATGKSAYEVAVAQGFTGALAEWVESLKGVAGKSAYDIALDAGYKGSHLDWLNSLKGGKGDKGDHGKSAYQVAFDAGFSGTEAEWLESLKAPSAPAVGGYKELANGVLWYCRPRYNTGRCTVPDTGWGAYDYETAEHTTKFVIEDGLFEDHGCYVVPDASNLPTDDLRLRMTRGVNRGIHHAGRMTNRSDLVPPYSATTSYFIDRWAAKFYGWYYVMLSPQESAQFLADTDLEKIEVDVQPVTFSGVDVTNWAPGGTETYFLAKEQGLLVPIYKGASRHTVSATGETIVALWFRVGVYTHRSNIGSDNHSFDGINGEPDGWNLHDVDVKFWSTNVAQGMKFSAKIRN | not soluble |
| MPADRYATGNGFTGIIRTRHQTFKRHRSAHRRNGQNPIGLPARSRWQPAGNQQLLIFRRLMQNKKQPAQAVFLAASLTPTAAPSSLPVGKR | not soluble |
| MPAFRMPPSTKVEYTSFGTKLSGAMKKIGLLSDTHGYIDEKYRIHFADCDEIWHAGDIGSVTVADYLSGLAPLRAVYGNIDGQDIRLQYPEVLRFCVEEVKVFMTHIGGYPGRYEPRIYRMLVQNPPRLFVCGHSHILKAMYDKKLDMLHLNPGAAGKYGFHAVRTLMRFVIDGRDIRDLQVIELADR | not soluble |
| MPAFVDLEELLATRLLVQGNSGSGKSHLLRRLLEQSSSWVQHCVIDPEGDFVTLADKFGHVIVEAQRSEQELMRIAYRIRQHRVSVVLNLEGLDTEQQMRAVGTFLGALFDVERDYWYPMLVVVDEAQLFAPAVAGEVSDEARKISLSAMTNLMCRGRKRGLAGVIATQRLAKLAKNVAAEASNFLIGRTFLDIDMVRAADLLGMERRQAEMFRDLERGHFVALGPALSRRSLRIIIGSVETLARSSSPKLMPLPKERVDVKELVFTASQEEILIPFKQSREPVKEKSIHAILEKAVNKKRELLAENSSLFPELSVVDRDLQAECIIREILEDPEAFYRSTAVLYQDFLVRCRIHGLSGDFLNLSQFRRKLAIAQACVDKETAVSENWKRILYISESLEDDVQGVFLNVAQAALGGKPCPSDAFLARLYGTHSLSRARRLLTYFEERGLIVIHTHFSGQRIIAFPDLGVETAPGDPKEPI | not soluble |
| MPAFVERTPSAEVPRQVLRPHAEHAFAAELASLAGQDDRPRPARWRLSPWAVATYLLGGTLPDGTVITPKYVGPRRVVEVAVTTLATDRALLLLGVPGTAKTWVSEHLAAAVSGDSTLLVQGTAGTPEEAIRYGWNYARLLAHGPGRDALVPSPVMRAMTEGATVRVEELTRIPADVQDSLITLLSEKTLPIPELGEEVQAVRGFNLIATANDRDRGVNDLSSALRRRFNTVVLPLPESAEAEVDIVTRRVDQIGRSLDLPSAPDGTDEIRRVVTVFRELRDGLTSDGRTKVKSPSGPLSTAEAISVVTGGLALCAHFGDGVLRAGDLAAGVLGAVVRDPGTDRVVWQEYLETVVREREGWQDFYRACREVTALEHHHHHH | not soluble |
| MPAGHEDIGLPQDDEAFMRYRERRIQELCGKVEEVVSEKELIEKTKSLRMIVHFYKPEFKRCKTMDKGLEEVKDCFPGIRFYRVNAEICPVVARKLEIRVLPFLGFFKDGYFVDQVVGFEKLGGDSVEPEVLKKRILDSNIFKPISSI | not soluble |
| MPDESAQVRFLIVGRTGWIANMVAELLEQRGERYAFASFRLEQREACELELDALRPQRVLNCAGVTGRPNVDWCEDHRRETVRSNVLGVLNLADCCASRGIHLTNFATGCLYHYDDGEHRPTAEGGRPFTEDDPPNFFGSYYSRTKAMVEELLRSAFDNVLILRLRMPVSDDLSPRSFVAKIARYEKVVNIPNSMTVLTELLPVALDMSERGLTGVYNFTNPGSISHNEVLELYRKYIDPKFQWKNFTLEEQAKILKAGRSNCELDVRKLLRDNPGAQIREVHAAMEEVFRRMQAKGVKPLAAP | not soluble |
| MPDHGPAFTVKIAETEAELHAAQRLRYDVFVRELGGSGALVDHQAGLERDRFDPFFDHMLCINNRSGQVVGVYRLLRDEQAQSAGQFYSEDEYDLGVLKRSGRRLLELGRSCVHPDYRGGMAMYHLWNGLADYVEQHGIEVLFGVASFHGTDVEALAQPLSMLYHNHLAPEDLRVRTQPAHYVDMNRITPEALDRRRAMLEVPSLIKAYLRLGGFVGDGAYIDHAFNTTDVCLILDTARMNERQRRIYGGG | not soluble |
| MPDHLGDDMRKTKKDDTKEEEKNFQALDEGDIAVLKRYGQGPYAEQLKTLDADIENCLKKVNELSGVKESDTGLAPPALWDIAADKQAMQQEQPLQVARCTKIITSDKHDPRYLINVKQFAKFVVDLADSVAPTDIEEGMRVGVDRNKYQIHLPLPAKIDPTVTMMQVEEKPDVTYSDVGGCKDQIEKLREVVETPLLHPERYVNLGIEPPKGVLLYGPPGTGKTLCARAVANRTDACFIRVIGSELVQKYVGEGARMVRELFEMARTKKACLIFFDEIDAVGGARFDDGQGGDNEVQRTMLELINQLDGFDPRGNIKVLMATNRPDTLDPALMRPGRLDRKVEFALPDLAGRAHILKIHAKQMSVERDIRYDLLARLCPNSTGAEIRSVCTEAGMFAIRARRKVATEKDFLEAINKVVKGYAKFSATPRYLTHN | not soluble |
| MPDYDLITILGPTASGKTPFAAALAHELNTEIISADSRQIYRGMDLGTGKDLADYTVDGHPIPYHLIDIADPGYKYNVFEYQRDFLISYESIKQKGCLPVLCGGTGMYLESVLKGYKLMPVPENPELRARLANHSLEELTEILKQYKTLHNSTDVDTVKRAIRAIEIEEYYAVHPVPEREFPKLNSLIIGVDIDRELRREKITRRLKQRLDEGMVDEVRRLTEQGISPDDLIYYGLEYKFLTLYVIGKLTYEEMFTELETAIHQFAKRQMTWFRGMERRGFTIHWVSAELPMEEKIAFVIEKLRGNLEHHHHHH | soluble |
| MPEFTNNPVAECDTVFSEKDGKKIVDFIIYPAKNGDQWVGTAVEAKSMGFGGELKVLVGFDAEGKIYNYSLLSHAETPGLGSKAADWFKEGNKGSIKGMNPGEQPLTVSKDGGQVDAITASTITSRAFLNAVNAAYGAYKGDGGANGTTGASQKAVQKSETAIVDSVVIKLEHHHHHH | soluble |
| MPENLQLVIITGMSGAGKTVAVQSFEDMGYFCIDNLPPSLIPKFWELIKESGKVTKIALVIDLRSRTFFREIQDMLVELENTNFIDTTILFLDATDEELVSRYKETRRAHPMAMDGLVTEGIRKERAMLEEIKADAQLVIDTTDLSPRQLRERLNKELATRETHEFRVEMVSFGFKYGLPIDADIVMDVRFLPNPHYIDELRPLTGMDQPVYDYVMGFPETDEFYTKFIDLLRTVLPGYKKEGKSSVTIAIGCTGGQHRSVALTERVGAELKEEDYHVNITHRDRLKRKETVNRS | not soluble |
| MPEQLKQRVETCYQQAEAFFKRRFPRPEVSFKLRGQKAGVAHLHENLLRFNLQLYRENQEDFLRQTVAHEVAHLVAHQLFGDRIQAHGEEWQLIMRGVYELPPNRCHNYDVQRRAVTRYIYRCPCPQSDFPFTAQRHKLVHQGRRYLCKRCREVLVYSGETRVE | soluble |
| MPETEEISKGLEDVNIKWTRLTTIDGNKGILRYGGYSVEDIIASGAQDEEIQYLFLYGNLPTEQELRKYKETVQKGYKIPDFVINAIRQLPRESDAVAMQMAAVAAMAASETKFKWNKDTDRDVAAEMIGRMSAITVNVYRHIMNMPAELPKPSDSYAESFLNAAFGRKATKEEIDAMNTALILYTDHEVPASTTAGLVAVSTLSDMYSGITAALAALKGPLHGGAAEAAIAQFDEIKDPAMVEKWFNDNIINGKKRLMGFGHRVYKTYDPRAKIFKGIAEKLSSKKPEVHKVYEIATKLEDFGIKAFGSKGIYPNTDYFSGIVYMSIGFPLRNNIYTALFALSRVTGWQAHFIEYVEEQQRLIRPRAVYVGPAERKYVPIAERK | soluble |
| MPEVIFNGPAGRLEGRYQPSKEKSAPIAIILHPHPQFGGTMNNQIVYQLFYLFQKRGFTTLRFNFRSIGRSQGEFDHGAGELSDAASALDWVQSLHPDSKSCWVAGYSFGAWIGMQLLMRRPEIEGFMSIAPQPNTYDFSFLAPCPSSGLIINGDADKVAPEKDVNGLVEKLKTQKGILITHRTLPGANHFFNGKVDELMGECEDYLDRRLNGELVPEPAAKRIR | soluble |
| MPEVRAERYIPAPPERVYRLAKDLEGLKPYLKEVESLEVVAREGARTRSRWVAVAMGKKVRWLEEEEWDDENLRNRFFSPEGDFDRYEGTWVFLPEGEGTRVVLTLTYELTIPIFGGLLRKLVQKLMQENVESLLKGLEERVLAASS | soluble |
| MPFDFETVLNRRHTNAVKWDVADDELPMWVADMDFETAPVIKQALIKRAQFGVFGYEEVPMAYYEAVADWWATEHNFRPQIEWLMFCTGVVPAISSIVRKMTAAGDNVLVQAPVYNIFYHSIENNGRHTLSSDLVARDASYAIDWDDLTKKLADPLTTMMILCNPQNPIGVVWSRATLQRLGELCLKYHVLVVADEIHCDLTLNGNAYTPFSSLTAPVAHNSISCISPSKTFNVAALHAATLIIPDAHVRALVSRGINNDELAEPNSFAIPASIAAYTEGHDWVAALRTKLAANQRQVQTYLTAELPQVKLVEAQATYLLWLDVSQVTTDSAALAAFIRQRTGLFLSAGDVYRGDGNRFLRLNVACPTTTLTDGLARLKAGITAYQQVQA | not soluble |
| MPFLPPLTPPTELYLGIQLPNPISILVNYLPVSQTPIETLRNLVYSCNINTLAIDEFMTWPSLLQPESTFRSYFELLVERGSIPAVYLEGVRQASNFVTVAQGLSVMTTVALSDPFACFATGLFLTCTGNHLDFLPISEKFWEMTPTLEAGHAVAEMVMYHISQLHTENARRWERSWRFVHPPSCVGQGDCYILLEAKLLRFKLLYSALLSSLLV | not soluble |
